Results from article PMC2364200.

Target: vitronectin (UniProt P04004)
UniProt P04004, sequence (P04004 20-478): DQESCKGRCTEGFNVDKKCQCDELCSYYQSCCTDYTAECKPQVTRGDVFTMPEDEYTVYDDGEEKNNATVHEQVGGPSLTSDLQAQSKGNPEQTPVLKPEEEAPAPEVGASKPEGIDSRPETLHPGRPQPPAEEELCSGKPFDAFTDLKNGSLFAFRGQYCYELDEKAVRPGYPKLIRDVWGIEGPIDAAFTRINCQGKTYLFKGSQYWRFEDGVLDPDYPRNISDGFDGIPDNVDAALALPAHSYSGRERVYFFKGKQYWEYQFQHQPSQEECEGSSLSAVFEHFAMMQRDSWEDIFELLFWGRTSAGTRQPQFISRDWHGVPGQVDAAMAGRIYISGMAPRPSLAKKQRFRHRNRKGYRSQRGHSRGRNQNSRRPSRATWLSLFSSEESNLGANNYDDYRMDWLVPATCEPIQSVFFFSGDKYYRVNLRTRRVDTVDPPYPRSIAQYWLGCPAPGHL

adhesion of V3B3S11aa cells on vitronectin (C1 null transfectant cells without avb3: 6.52%)	haptotactic migration of V3B3S11aa cells towards vitronectin (C1 cells: 2.01%)	haptotactic migration of V3B3S11aa cells towards vitronectin in the presence of LM609	inhibition of adhesion of V3B3S11aa cells to vitronectin by LM609 (anti-avb3 blocking antibody)	adhesion of V3B3 cells on vitronectin (C1 null transfectant cells without avb3: 6.52%)	haptotactic migration of V3B3 cells towards vitronectin (C1 cells: 2.01%)	haptotactic migration of V3B3 cells towards vitronectin in the presence of LM609	inhibition of adhesion of V3B3 cells to vitronectin by LM609 (anti-avb3 blocking antibody)	Substance
39.5%	21.8%	0%	26%					avb3 integrin heterodimer with the b3 chimaeric mutant whose cytoplasmic domain is extended by the C-terminal 11 amino acids of b6 (on V3B3S11aa squamous cell carcinoma cells) (from UniProt P06756 31-1048; P05106 27-788; P18564 778-788) (receptor)
				38.6%	20.3%	3.92%	30.6%	avb3 integrin heterodimer, wild type b3 (on V3B3 squamous cell carcinoma cells) (from UniProt P06756 31-1048; P05106 27-788) (receptor)
